Experimental data: US20080206230A1 (INSTITUT PASTEUR, published 2008)

Target: T1, rat NEP ecto-endopeptidase (renal tissue) (rat, UniProt P07861 2-750)
T1 sequence (looked up): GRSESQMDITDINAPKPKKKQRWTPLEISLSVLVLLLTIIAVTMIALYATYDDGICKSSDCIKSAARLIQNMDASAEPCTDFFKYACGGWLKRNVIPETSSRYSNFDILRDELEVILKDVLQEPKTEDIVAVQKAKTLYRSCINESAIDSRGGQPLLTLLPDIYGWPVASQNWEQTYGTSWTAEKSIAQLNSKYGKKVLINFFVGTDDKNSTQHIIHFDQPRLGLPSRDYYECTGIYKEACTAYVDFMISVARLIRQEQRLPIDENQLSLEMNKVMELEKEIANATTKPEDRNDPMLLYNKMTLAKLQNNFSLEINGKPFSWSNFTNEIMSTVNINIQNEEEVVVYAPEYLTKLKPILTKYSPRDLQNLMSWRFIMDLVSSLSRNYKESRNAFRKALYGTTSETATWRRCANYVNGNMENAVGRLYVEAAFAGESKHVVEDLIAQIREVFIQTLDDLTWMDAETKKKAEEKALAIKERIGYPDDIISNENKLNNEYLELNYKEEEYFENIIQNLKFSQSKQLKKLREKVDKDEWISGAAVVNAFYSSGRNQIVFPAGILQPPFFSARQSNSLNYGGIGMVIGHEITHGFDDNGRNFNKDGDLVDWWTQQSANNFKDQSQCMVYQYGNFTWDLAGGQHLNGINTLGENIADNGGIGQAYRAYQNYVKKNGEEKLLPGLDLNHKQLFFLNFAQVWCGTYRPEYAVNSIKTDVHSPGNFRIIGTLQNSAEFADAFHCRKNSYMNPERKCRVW
Test: cell-based or functional assay

B1: QRFSR peptide (peptide)
peptide: QRFSR
**Q.** B1 was tested. Which “inhibitory efficiency towards rat renal NEP relative to human cell surface NEP (LNCaP)” value did it give?
**A.** The value was no less than 10 fold lower.
